The values that follow come from US20190374506A1 (BETH ISREAL DEACONESS MEDICAL CENTER, published 2019).

Series [1] concerns the molecule itself. In words: gel filtration of HEK293 lysate, fractions on SDS-PAGE, anti-Myc blot. The method, then:
293 cells were transfected with the indicated expression vectors. After 24 hours, cells were washed with PBS, lysed and filtered through a 0.45 μm syringe filter. 500 μl of lysate (4 mg/ml) was loaded into a Superdex200 10/300 GL column (GE Lifesciences Cat. No. 17-5175-01). Tandem columns gel filtrations were performed by further attaching a series Superdex 75 10/300 GL column (GE Lifesciences Cat. No. 17-5174-01). Samples were separated in a Superdex75 column first, followed by a Superdex 200 column. Chromatography was performed by using anAKTA FPLC (GE Lifesciences Cat. No. 18-1900-26), and protein complexes were resolved and eluted with lysis buffer at 0.5 ml/minute, 500 μl per fraction. 40 μl aliquots of each fraction were separated by SDS-PAGE and western blot analysis was performed with the indicated antibodies. Before sample separation, molecular-weight resolution of the columns was estimated by running the Gel Filtration Calibration Kit (GE Lifesciences, #28-4038-42) to determine retention times on Coomassie-stained SDS-PAGE protein gels.
For orientation: Size exclusion chromatography separates by hydrodynamic size, large species first.

Series [2] addresses T1, Flag-WWP1 (Homo sapiens (Human), UniProt Q9H0M0 1-922).
T1 construct: also called full-length Flag-WWP1; recombinant Flag-WWP1; not shown: Flag tag
In words: co-immunoprecipitation: IP Flag, WB PTEN.

Series [3] addresses T2, Flag-WWP1 ΔWW domain (deletion 341-547) (Homo sapiens (Human), UniProt Q9H0M0 1-922).
T2 construct: The two kept ranges are counted on the 922-residue WWP1 entry; not shown: Flag tag
T2 sequence: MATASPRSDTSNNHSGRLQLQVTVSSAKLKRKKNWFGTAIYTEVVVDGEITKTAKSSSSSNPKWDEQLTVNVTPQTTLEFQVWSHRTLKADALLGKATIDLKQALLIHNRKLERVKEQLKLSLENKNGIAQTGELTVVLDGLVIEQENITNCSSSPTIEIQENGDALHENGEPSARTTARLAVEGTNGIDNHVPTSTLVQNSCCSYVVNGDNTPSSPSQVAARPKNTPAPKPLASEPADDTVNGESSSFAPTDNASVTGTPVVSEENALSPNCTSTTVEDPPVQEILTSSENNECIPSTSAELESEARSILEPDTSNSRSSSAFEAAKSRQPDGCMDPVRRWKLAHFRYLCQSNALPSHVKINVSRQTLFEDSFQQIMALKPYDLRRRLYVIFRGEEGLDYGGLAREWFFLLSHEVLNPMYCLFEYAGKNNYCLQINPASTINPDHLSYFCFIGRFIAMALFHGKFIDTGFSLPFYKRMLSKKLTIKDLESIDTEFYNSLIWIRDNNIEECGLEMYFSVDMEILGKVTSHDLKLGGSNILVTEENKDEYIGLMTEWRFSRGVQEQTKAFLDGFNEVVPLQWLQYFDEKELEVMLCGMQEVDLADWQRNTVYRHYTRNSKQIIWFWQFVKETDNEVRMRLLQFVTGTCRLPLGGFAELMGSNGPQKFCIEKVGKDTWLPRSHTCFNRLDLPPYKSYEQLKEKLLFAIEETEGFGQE
Put plainly: co-immunoprecipitation from 293 cells: IP Flag, WB PTEN. The procedure: Lysates of 293 cells transfected with indicated constructs were analysed by immunoprecipitation and/or western blot with indicated antibodies.
Western Blotting and Immunoprecipitation. For western blotting, cells were lysed in RIPA buffer (Boston BioProducts) supplemented with protease (Roche) and phosphatase (Roche) inhibitor. Proteins were separated on NuPAGE 4-12% Bis-Tris gradient gels (Invitrogen), transferred to polyvinylidine difluoride membranes (Immobilon P, Millipore) and the blots were probed with the indicated antibodies. For immunoprecipitation, PC3, 293T and MEF cells were transfected with the indicated expression vectors by using LIPOFECTAMIN 2000 (Life Technologies). 24 hours after transfection, cells were lysed in RIPA buffer with protease (Roche) and phosphatase (Roche) inhibitor. 500 μg of total lysates were pre-cleared for 30 minutes at 4° C., and then immunoprecipitated with anti-Myc (Cell Signaling Technology 9B11, 1:500), or anti-PTEN (Cell Signaling Technology 9559, 1:500) antibody overnight at 4° C. The Protein-A or Protein-G sepharose beads (GE Healthcare) were then added and incubated for another 2 hours. The immunoprecipitates were washed with RIPA buffer three times. […]

In series [4] the target is T1, Flag-WWP1. Put plainly: reciprocal co-immunoprecipitation from 293 cells: IP HA / WB Flag and IP Flag / WB HA.
Series [5] addresses Isoform 2 of Telomere-associated protein RIF1. Put plainly: anti-PTEN immunoprecipitation from DU145 cells transfected with HA-PTEN, SDS-PAGE, mass-spectrometric peptide sequencing of the bands (association in the precipitate). The source says:
(§1) FIG. 2A is a Western blot. Lysates from DU145 cells transfected with HA-PTEN were immunoprecipitated with an anti-PTEN antibody followed by mass-spectrometric peptide sequencing. WWP1 and NEDD4-1 were identified.
(§2) In order to identify the E3 ligases that induce PTEN atypical K27-linked poly-ubiquitination, exogenous PTEN was immunoprecipitated from DU145 cells, followed by identification of the proteins that interacted with PTEN by mass spectrometry (FIG. 2A; FIG. 18).

Series [6] concerns the target T3, Sperm-associated antigen 5 (human (endogenous protein of DU145 …, UniProt Q96R06)).
T3 construct: endogenous, identified by mass spectrometry
T3 sequence (looked up): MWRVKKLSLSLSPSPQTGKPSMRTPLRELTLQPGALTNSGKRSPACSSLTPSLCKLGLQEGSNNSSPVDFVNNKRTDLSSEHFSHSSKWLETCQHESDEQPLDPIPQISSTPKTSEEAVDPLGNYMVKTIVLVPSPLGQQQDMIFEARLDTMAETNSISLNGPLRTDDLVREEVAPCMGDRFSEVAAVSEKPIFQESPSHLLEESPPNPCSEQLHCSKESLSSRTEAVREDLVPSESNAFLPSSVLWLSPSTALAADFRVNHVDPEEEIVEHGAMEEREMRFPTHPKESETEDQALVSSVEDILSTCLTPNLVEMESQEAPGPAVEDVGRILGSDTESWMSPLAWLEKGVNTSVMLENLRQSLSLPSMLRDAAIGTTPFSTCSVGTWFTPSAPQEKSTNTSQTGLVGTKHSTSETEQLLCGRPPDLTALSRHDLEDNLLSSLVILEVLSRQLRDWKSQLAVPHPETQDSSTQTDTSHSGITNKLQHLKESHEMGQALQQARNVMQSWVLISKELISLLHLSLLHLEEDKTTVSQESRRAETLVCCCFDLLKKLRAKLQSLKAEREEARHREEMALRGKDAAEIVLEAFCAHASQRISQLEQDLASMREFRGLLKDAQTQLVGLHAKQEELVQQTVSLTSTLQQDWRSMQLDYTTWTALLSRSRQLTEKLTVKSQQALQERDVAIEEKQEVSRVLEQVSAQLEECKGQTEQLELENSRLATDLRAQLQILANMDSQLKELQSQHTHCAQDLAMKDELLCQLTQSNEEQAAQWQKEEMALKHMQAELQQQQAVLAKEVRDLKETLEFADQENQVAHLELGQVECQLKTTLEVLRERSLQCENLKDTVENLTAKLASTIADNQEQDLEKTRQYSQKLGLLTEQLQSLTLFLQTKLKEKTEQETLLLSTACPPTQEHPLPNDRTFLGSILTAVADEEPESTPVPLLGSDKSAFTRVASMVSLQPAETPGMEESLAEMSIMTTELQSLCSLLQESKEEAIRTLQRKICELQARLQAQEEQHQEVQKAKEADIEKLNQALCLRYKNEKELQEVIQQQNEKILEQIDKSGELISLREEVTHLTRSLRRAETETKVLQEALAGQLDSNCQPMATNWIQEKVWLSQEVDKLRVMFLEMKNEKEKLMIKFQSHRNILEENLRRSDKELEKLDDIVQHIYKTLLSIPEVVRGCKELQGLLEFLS
The description is as above.
Source text: as §1, §2

Series [7] addresses T4, ATP dependent RNA helicase A (human (endogenous protein of DU145 …, UniProt Q08211)).
T4 construct: endogenous, identified by mass spectrometry
The description is as above.
Source text: as §1, §2

In series [8] the target is T5, Poly [ADP-ribose] polymerase 1 (human (endogenous protein of DU145 …, UniProt P09874)).
T5 construct: endogenous, identified by mass spectrometry
Described as above.
Source text: as §1, §2

Series [9] deals with T6, WW domain containing E3 ubiquitin protein ligase 1 (WWP1) (human, UniProt Q9H0M0 1-922, limits assumed).
T6 construct: also called endogenous WWP1; WW domain-containing protein-1
In words: immunoprecipitation of exogenous PTEN from DU145 cells, mass spectrometry (FIG. 2A).
Source text: as §1, §2

T5 sequence (P09874 2-1014 limits assumed): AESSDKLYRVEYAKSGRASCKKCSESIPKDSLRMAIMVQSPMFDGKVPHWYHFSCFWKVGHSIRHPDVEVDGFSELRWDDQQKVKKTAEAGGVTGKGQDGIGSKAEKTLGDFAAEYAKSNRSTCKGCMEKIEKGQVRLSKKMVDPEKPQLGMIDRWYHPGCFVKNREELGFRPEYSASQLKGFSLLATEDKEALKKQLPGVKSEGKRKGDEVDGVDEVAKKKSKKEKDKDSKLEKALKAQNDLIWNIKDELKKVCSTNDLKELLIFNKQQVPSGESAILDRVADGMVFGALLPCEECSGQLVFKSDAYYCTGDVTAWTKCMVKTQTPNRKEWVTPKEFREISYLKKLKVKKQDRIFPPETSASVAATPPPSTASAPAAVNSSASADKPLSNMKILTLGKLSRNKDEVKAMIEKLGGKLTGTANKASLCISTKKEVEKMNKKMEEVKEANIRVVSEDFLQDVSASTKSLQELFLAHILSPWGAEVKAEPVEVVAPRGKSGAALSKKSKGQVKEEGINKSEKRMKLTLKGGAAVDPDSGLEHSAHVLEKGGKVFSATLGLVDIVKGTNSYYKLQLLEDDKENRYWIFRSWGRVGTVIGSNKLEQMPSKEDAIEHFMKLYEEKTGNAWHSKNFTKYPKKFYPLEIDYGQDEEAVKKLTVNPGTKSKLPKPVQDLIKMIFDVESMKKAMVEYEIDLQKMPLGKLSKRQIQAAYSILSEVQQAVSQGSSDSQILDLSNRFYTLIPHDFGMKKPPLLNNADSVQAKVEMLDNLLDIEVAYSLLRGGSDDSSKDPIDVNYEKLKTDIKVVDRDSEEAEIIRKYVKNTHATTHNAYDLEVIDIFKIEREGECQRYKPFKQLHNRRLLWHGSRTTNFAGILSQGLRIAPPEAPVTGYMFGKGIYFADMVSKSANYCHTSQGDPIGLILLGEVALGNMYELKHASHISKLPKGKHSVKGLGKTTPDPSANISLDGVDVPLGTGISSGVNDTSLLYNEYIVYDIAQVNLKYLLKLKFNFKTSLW
T4 sequence (Q08211 whole entry): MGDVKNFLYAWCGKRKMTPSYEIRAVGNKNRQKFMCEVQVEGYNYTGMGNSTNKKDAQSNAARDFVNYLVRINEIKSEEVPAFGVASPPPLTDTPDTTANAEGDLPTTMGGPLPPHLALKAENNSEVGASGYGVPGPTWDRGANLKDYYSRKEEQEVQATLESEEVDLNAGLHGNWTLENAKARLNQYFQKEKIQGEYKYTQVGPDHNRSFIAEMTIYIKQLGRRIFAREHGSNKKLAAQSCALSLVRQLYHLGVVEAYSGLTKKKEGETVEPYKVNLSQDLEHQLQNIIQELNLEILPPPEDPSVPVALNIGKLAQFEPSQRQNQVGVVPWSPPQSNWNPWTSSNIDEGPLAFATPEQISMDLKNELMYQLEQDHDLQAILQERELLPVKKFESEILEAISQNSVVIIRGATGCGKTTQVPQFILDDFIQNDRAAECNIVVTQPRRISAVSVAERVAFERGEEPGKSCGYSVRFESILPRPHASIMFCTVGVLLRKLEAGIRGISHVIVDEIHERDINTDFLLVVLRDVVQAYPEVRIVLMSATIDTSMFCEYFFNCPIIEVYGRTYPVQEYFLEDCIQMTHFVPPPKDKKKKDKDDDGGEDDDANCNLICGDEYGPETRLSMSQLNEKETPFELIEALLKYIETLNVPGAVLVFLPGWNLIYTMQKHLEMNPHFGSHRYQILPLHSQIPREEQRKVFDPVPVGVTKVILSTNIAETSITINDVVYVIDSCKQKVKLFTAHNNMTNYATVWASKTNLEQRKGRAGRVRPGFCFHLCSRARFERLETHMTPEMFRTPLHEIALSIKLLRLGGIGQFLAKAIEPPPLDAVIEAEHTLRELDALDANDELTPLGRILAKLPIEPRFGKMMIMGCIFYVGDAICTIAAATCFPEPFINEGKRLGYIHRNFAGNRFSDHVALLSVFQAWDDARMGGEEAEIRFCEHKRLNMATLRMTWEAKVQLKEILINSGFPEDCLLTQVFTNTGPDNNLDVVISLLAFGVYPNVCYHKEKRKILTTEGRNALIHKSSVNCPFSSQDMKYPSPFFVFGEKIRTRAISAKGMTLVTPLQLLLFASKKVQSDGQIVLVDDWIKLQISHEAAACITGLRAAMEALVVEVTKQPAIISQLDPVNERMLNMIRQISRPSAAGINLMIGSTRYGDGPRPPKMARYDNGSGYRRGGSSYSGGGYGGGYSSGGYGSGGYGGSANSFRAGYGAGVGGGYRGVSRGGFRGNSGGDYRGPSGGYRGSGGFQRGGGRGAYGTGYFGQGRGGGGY
Sequence of Isoform 2 of Telomere-associated protein RIF1 (chain, as listed by the source limits assumed): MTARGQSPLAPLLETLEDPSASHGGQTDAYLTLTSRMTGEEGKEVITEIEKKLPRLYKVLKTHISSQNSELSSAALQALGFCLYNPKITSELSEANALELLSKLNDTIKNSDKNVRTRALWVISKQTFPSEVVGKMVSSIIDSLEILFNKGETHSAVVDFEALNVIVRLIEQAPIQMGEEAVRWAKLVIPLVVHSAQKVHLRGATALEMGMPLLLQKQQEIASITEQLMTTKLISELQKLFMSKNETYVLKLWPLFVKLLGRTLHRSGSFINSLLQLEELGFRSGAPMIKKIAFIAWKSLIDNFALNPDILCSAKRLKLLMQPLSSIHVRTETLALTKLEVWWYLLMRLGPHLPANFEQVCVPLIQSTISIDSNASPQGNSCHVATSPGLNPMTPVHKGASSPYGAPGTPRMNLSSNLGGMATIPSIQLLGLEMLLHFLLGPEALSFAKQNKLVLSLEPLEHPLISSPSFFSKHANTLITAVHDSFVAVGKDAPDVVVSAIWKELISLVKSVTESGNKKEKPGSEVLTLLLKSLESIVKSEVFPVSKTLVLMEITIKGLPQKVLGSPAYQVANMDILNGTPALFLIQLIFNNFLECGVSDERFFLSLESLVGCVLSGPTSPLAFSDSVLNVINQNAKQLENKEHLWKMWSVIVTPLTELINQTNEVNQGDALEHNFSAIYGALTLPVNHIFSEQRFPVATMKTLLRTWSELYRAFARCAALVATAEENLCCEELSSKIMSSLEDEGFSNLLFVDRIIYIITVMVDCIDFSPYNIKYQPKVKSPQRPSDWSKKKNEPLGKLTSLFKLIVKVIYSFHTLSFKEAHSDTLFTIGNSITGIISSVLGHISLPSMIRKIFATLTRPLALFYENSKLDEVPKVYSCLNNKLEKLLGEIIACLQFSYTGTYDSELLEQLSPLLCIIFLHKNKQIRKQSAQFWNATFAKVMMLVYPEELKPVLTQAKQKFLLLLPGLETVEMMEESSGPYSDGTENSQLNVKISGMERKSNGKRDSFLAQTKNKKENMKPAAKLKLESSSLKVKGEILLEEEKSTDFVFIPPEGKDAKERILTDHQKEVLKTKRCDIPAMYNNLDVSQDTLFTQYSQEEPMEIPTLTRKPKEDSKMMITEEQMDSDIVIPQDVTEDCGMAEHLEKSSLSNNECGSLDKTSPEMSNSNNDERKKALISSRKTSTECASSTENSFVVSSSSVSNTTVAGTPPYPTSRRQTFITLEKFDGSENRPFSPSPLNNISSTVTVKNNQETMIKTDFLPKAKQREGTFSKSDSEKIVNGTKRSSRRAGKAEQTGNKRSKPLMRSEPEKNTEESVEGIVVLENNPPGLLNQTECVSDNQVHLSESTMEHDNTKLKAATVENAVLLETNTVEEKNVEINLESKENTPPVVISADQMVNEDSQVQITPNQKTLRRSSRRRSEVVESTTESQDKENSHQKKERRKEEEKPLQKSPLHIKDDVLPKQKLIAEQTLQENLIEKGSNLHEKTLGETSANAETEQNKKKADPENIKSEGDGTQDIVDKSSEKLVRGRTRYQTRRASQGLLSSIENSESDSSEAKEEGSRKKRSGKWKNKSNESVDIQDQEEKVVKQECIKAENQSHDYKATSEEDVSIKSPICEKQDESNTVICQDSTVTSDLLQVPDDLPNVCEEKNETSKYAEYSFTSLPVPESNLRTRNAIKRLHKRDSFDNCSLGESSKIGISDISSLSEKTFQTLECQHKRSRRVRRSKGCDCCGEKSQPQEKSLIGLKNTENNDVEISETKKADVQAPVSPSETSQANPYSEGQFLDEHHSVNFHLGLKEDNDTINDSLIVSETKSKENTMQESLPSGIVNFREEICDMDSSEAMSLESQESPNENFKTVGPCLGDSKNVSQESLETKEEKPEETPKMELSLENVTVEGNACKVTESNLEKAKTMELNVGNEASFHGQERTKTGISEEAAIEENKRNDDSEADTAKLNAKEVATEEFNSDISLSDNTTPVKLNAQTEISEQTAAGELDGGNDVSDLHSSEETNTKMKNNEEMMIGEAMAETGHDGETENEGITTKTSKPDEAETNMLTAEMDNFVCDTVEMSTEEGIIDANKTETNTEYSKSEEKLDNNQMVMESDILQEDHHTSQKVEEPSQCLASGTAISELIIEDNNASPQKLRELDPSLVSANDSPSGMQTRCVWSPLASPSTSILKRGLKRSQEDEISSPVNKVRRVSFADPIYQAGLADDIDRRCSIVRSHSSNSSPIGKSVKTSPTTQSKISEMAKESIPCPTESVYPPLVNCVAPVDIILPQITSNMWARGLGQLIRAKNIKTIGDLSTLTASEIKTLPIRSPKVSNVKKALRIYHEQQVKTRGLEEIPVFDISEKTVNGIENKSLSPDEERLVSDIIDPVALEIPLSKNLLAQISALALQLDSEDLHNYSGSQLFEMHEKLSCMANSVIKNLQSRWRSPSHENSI

B1: PTEN K342/K344R mutant (enzyme, not shown: small tags and cut ends)
chain: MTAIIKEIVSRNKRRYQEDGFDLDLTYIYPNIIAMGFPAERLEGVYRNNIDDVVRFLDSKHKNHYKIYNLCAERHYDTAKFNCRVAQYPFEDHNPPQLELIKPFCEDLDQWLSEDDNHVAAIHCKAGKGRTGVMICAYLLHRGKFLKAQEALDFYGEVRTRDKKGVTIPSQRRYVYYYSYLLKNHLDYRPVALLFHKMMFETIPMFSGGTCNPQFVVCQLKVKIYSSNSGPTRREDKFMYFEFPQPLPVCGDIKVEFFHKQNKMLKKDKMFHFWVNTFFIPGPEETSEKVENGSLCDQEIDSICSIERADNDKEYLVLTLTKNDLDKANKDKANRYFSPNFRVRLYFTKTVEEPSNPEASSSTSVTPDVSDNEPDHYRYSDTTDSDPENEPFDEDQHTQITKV
notes: also called Myc-PTEN K342/K344R mutant; PTEN K342/K344R ubiquitination defective mutant
With B1, in [1], the binding result is reported as “binds”.

B2: PTEN 4E mutant (enzyme)
chain: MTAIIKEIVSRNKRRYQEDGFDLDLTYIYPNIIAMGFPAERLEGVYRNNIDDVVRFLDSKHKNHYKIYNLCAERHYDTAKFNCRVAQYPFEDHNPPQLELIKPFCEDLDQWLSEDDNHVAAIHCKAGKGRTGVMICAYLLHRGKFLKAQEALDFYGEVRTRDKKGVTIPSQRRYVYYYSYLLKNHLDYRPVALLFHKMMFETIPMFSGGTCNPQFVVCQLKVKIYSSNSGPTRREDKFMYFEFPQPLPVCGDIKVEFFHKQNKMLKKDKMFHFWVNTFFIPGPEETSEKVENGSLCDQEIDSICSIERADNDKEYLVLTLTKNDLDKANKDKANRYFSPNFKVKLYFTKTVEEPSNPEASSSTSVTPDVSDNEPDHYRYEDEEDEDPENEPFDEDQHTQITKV
notes: also called pcDNA3-Myc-PTEN 4E; phosphomimetic 4E; not shown: Myc tag by the plasmid list
Consider B2, for which the binding result in the series with Flag-WWP1 [2] is “no binding”.

B3: Myc-PTEN (enzyme)
chain: not shown
notes: also called pcDNA3-Myc-PTEN; not shown: Myc tag
Consider B3, for which, in series [3], the binding result was “no binding”.

B4: N-terminal PTEN (1-187) (enzyme, not shown: small tags and cut ends)
chain: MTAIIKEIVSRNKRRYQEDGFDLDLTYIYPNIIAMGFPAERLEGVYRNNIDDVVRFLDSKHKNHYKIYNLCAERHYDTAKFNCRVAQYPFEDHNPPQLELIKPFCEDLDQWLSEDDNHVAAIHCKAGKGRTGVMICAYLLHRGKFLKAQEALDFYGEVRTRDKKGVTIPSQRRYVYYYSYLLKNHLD
Take B4: in the series with Flag-WWP1 [4], the binding result is “no binding”.

B5: HA-PTEN (enzyme)
chain: not shown
notes: Expressed in DU145 cells and immunoprecipitated with anti-PTEN antibody for mass spectrometry; also called exogenous PTEN; pcDNA3-HA-PTEN; not shown: HA tag
Take B5: the binding result in series [5], in series [6], in [7], in series [8] and in [9] was “binds” each time.
